From patent US7256007B2, “Methods of regulating cytokine signalling” (The Walter and Eliza Hall Institute of Medical Research, priority 2000, dated 2007)
Square brackets hold non-standard residues; d marks the D form. Ends that are not written are not given here. pY = N[C@@H](Cc1ccc(OP(=O)(O)O)cc1)C(=O)O

T1: SOCS-3 (Mus musculus, UniProt O35718)
T1 construct: hexahistidine (pET15b) (N); made in house; host or cells: E. coli BL21 DE3 pLysS
T1 sequence (O35718 1-225): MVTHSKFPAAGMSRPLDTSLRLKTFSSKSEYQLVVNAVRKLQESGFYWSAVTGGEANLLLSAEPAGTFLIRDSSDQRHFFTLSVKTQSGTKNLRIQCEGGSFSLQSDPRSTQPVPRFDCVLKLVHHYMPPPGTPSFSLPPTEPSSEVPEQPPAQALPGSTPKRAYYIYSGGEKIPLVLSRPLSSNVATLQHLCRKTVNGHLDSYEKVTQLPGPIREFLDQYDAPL

T2: gp130(674-688) pY681 control phosphopeptide (mouse, not fully specified (N-terminus); printed as FNSKDQM(pY)SDGNFTD; also: biotinylated, site not given here)
T2 chain: FNSKDQM[pY]SDGNFTD-NH2

B1: gp130 phosphopeptide S9A (peptide)
chain: STASTVE[pY]ATVVHSG-NH2
modifications: N-terminus assumed
SMILES: CC(C)[C@H](NC(=O)[C@@H](NC(=O)[C@@H](NC(=O)[C@H](C)NC(=O)[C@H](Cc1ccc(OP(=O)(O)O)cc1)NC(=O)[C@H](CCC(=O)O)NC(=O)[C@@H](NC(=O)[C@@H](NC(=O)[C@H](CO)NC(=O)[C@H](C)NC(=O)[C@@H](NC(=O)[C@@H](N)CO)[C@@H](C)O)[C@@H](C)O)C(C)C)[C@@H](C)O)C(C)C)C(=O)N[C@@H](Cc1c[nH]cn1)C(=O)N[C@@H](CO)C(=O)NCC(N)=O
B2: AcVA(pY)STVVHSG (peptide)
chain: Ac-VA[pY]STVVHSG-NH2
SMILES: CC(=O)N[C@H](C(=O)N[C@@H](C)C(=O)N[C@@H](Cc1ccc(OP(=O)(O)O)cc1)C(=O)N[C@@H](CO)C(=O)N[C@H](C(=O)N[C@H](C(=O)N[C@H](C(=O)N[C@@H](Cc1c[nH]cn1)C(=O)N[C@@H](CO)C(=O)NCC(N)=O)C(C)C)C(C)C)[C@@H](C)O)C(C)C
B3: STASTVE(pY)STVVH (peptide)
chain: STASTVE[pY]STVVH-NH2
modifications: N-terminus assumed
SMILES: CC(C)[C@H](NC(=O)[C@@H](NC(=O)[C@@H](NC(=O)[C@H](CO)NC(=O)[C@H](Cc1ccc(OP(=O)(O)O)cc1)NC(=O)[C@H](CCC(=O)O)NC(=O)[C@@H](NC(=O)[C@@H](NC(=O)[C@H](CO)NC(=O)[C@H](C)NC(=O)[C@@H](NC(=O)[C@@H](N)CO)[C@@H](C)O)[C@@H](C)O)C(C)C)[C@@H](C)O)C(C)C)C(=O)N[C@@H](Cc1c[nH]cn1)C(N)=O
B4: STASTVE(pY)STVVHS (peptide)
chain: STASTVE[pY]STVVHS-NH2
modifications: N-terminus assumed
SMILES: CC(C)[C@H](NC(=O)[C@@H](NC(=O)[C@@H](NC(=O)[C@H](CO)NC(=O)[C@H](Cc1ccc(OP(=O)(O)O)cc1)NC(=O)[C@H](CCC(=O)O)NC(=O)[C@@H](NC(=O)[C@@H](NC(=O)[C@H](CO)NC(=O)[C@H](C)NC(=O)[C@@H](NC(=O)[C@@H](N)CO)[C@@H](C)O)[C@@H](C)O)C(C)C)[C@@H](C)O)C(C)C)C(=O)N[C@@H](Cc1c[nH]cn1)C(=O)N[C@@H](CO)C(N)=O
B5: Ac(pY)STVVHSG (peptide)
chain: Ac-[pY]STVVHSG-NH2
SMILES: CC(=O)N[C@@H](Cc1ccc(OP(=O)(O)O)cc1)C(=O)N[C@@H](CO)C(=O)N[C@H](C(=O)N[C@H](C(=O)N[C@H](C(=O)N[C@@H](Cc1c[nH]cn1)C(=O)N[C@@H](CO)C(=O)NCC(N)=O)C(C)C)C(C)C)[C@@H](C)O
B6: gp130 phosphopeptide V11A (peptide)
chain: STASTVE[pY]STAVHSG-NH2
modifications: N-terminus assumed
SMILES: CC(C)[C@H](NC(=O)[C@H](C)NC(=O)[C@@H](NC(=O)[C@H](CO)NC(=O)[C@H](Cc1ccc(OP(=O)(O)O)cc1)NC(=O)[C@H](CCC(=O)O)NC(=O)[C@@H](NC(=O)[C@@H](NC(=O)[C@H](CO)NC(=O)[C@H](C)NC(=O)[C@@H](NC(=O)[C@@H](N)CO)[C@@H](C)O)[C@@H](C)O)C(C)C)[C@@H](C)O)C(=O)N[C@@H](Cc1c[nH]cn1)C(=O)N[C@@H](CO)C(=O)NCC(N)=O
B7: SOCS-3 (recombinant, His-tagged) (protein)
chain: T1 sequence (O35718 1-225)
B8: gp130 phosphopeptide H13A (peptide)
chain: STASTVE[pY]STVVASG-NH2
modifications: N-terminus assumed
SMILES: CC(C)[C@H](NC(=O)[C@@H](NC(=O)[C@@H](NC(=O)[C@H](CO)NC(=O)[C@H](Cc1ccc(OP(=O)(O)O)cc1)NC(=O)[C@H](CCC(=O)O)NC(=O)[C@@H](NC(=O)[C@@H](NC(=O)[C@H](CO)NC(=O)[C@H](C)NC(=O)[C@@H](NC(=O)[C@@H](N)CO)[C@@H](C)O)[C@@H](C)O)C(C)C)[C@@H](C)O)C(C)C)C(=O)N[C@@H](C)C(=O)N[C@@H](CO)C(=O)NCC(N)=O
B9: AcAE(pY)STVVHSG (peptide)
chain: Ac-AE[pY]STVVHSG-NH2
SMILES: CC(=O)N[C@@H](C)C(=O)N[C@@H](CCC(=O)O)C(=O)N[C@@H](Cc1ccc(OP(=O)(O)O)cc1)C(=O)N[C@@H](CO)C(=O)N[C@H](C(=O)N[C@H](C(=O)N[C@H](C(=O)N[C@@H](Cc1c[nH]cn1)C(=O)N[C@@H](CO)C(=O)NCC(N)=O)C(C)C)C(C)C)[C@@H](C)O

Legend:
SOCS-3 = biological target: T1, SOCS-3; assay: Biosensor (SPR) analysis of recombinant SOCS-3 binding to immobilized biotinylated phosphopeptide; design: species or system murine; details: non-specific control channel on the same chip
Method: Purified protein was refolded by dialysis into PBS containing 2 mM DTT, 2 mM EDTA and 0.02% v/v Tween 20. Refolded material was purified to homogeneity by ion exchange chromatography on a Mono S column (Pharmacia).
Phosphopeptides containing an N-terminal biotin moiety were immobilized onto a streptavidin-coated Biosensor chip (Pharmacia) at a density of ˜200 Resonance Units (Rus). […] Binding profiles were analyzed using the BIAevaluation software version 3.0 (Pharmacia).

EPOR/gp130Y757F = assay: APRE-luc luciferase reporter assay in transiently transfected 293T cells, EPO stimulated; type: cell-based; details: gp130 cytoplasmic domain with Y757F mutation, 10U/ml EPO overnight
Method: Generation of the expression vectors for SOCS-1 and SOCS-3, luciferase assays and Western blot analysis have been described previously (Nicholson et al., 1999). Briefly, 293T cells were transiently transfected with SOCS expression plasmids, a LIF-responsive reporter construct (APRE-luc; Endo et al., 1997) and a β-galactosidase reporter construct under a constitutive promoter (Srα-β-gal; Ogilvy et al., 1998). Luciferase activity from triplicate samples was determined and normalized against β-galactosidase activity.
It was therefore important to confirm these findings using a biological assay. A chimeric receptor was created that contained the erythropoietin receptor (EPOR) extracellular domain and the gp130 cytoplasmic domain (EPOR/gp130). A second receptor was created containing the EPO receptor extracellular domain and the gp130 cytoplasmic domain in which tyrosine 757 had been mutated to phenylalanine (EPOR/gp130Y757F). 293T cells were transiently transfected with cDNAs expressing the receptor constructs and either SOCS-3 or SOCS-1 in the presence of the APRE-luc and Srα-β-gal reporter genes. Cells were then incubated in the presence of 10U/ml EPO overnight and luciferase activity determined. Mutation of Y757 in the gp130 cytoplasmic domain has been reported to result in a hyperactive receptor complex, presumably from the loss of a negative regulator such as SHP-2. […]

[1] = biological target: B7; assay: competition, SPR
[2] = biological target: T2, gp130(674-688) pY681 control …; assay: SPR

Chain of EPOR/gp130Y757F (Q00560 640-917 Y757F limits assumed): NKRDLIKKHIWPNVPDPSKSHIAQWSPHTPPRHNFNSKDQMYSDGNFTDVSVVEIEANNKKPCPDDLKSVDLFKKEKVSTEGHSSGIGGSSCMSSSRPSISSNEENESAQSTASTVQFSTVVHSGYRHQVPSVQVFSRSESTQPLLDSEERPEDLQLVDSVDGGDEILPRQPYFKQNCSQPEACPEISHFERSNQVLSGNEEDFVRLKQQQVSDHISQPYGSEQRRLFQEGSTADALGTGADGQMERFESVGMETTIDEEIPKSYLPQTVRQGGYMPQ

Molecule: FNSKDQM(pY)SDGNFTD (FNSKDQM[pY]SDGNFTD-NH2; N-terminus assumed; SMILES CSCC[C@H](NC(=O)[C@H](CCC(N)=O)NC(=O)[C@H](CC(=O)O)NC(=O)[C@H](CCCCN)NC(=O)[C@H](CO)NC(=O)[C@H](CC(N)=O)NC(=O)[C@@H](N)Cc1ccccc1)C(=O)N[C@@H](Cc1ccc(OP(=O)(O)O)cc1)C(=O)N[C@@H](CO)C(=O)N[C@@H](CC(=O)O)C(=O)NCC(=O)N[C@@H](CC(N)=O)C(=O)N[C@@H](Cc1ccccc1)C(=O)N[C@H](C(=O)N[C@@H](CC(=O)O)C(N)=O)[C@@H](C)O) [gp30(674-688) phosphopeptide, non-cognate gp130 phosphopeptide immobilized as non-specific control]
- specific binding of SOCS-3 to immobilized peptide (SOCS-3): no specific binding was detected

Molecule: SOCS-3: suppressor of cytokine signaling 3, expressed from transfected cDNA in 293T cells
- SOCS-3 DNA giving 50% inhibition of luciferase activity (EPOR/gp130Y757F): 54 ng

Molecule: B1
- IC50 [1]: 72 nM

Molecule: B2
- IC50 [1]: 550 nM

Molecule: B3
- IC50 [1]: 77 nM

Molecule: B4
- IC50 [1]: 61 nM

Molecule: B5
- IC50 [1]: 9600 nM

Molecule: B6
- IC50 [1]: 3400 nM

Molecule: B7
- binding result [2]: no binding

Molecule: B8
- IC50 [1]: 770 nM

Molecule: B9
- IC50 [1]: 580 nM
